pKd: −log10 of the molar value.

The results in this text go back to the Immune Epitope Database (IEDB).

One assay deals with HLA-B*45:01. Description: IEDB peptide-MHC binding, purified MHC/competitive/radioactivity; filed as Kd, often an IC50 or EC50 that approximates it; ≥ and ≤ were set here for values at or beyond the usual limits of such assays.
The target in another assay is HLA-B*40:01. The assay is described as above.
A further assay concerns the target HLA-B*40:02. The description is as above.
In a further assay the target is HLA-B*44:03. The description is as above.
The next assay has as its target HLA-B*44:02. The assay is described as above.
In a further assay the target is HLA-B*18:01. The description is as above.
In another assay the target is HLA-A*68:02. Described as above.
The target of the next assay is HLA-B*53:01. The description is as above. Conditions: source organism: Vaccinia virus WR.
In a further assay the target is HLA-B*54:01. The description is as above. To be noted: source organism: Vaccinia virus WR.
The target of the next assay is HLA-A*02:06. The description is as above.
Another assay concerns the target HLA-A*33:01. Described as above. To be noted: source organism: Vaccinia virus WR.
The next assay deals with HLA-A*31:01. The description is as above. To be noted: source organism: Vaccinia virus WR.
A further assay addresses HLA-A*02:02. The assay is described as above.
Assay [1] concerns the target HLA-A*03:01. Described as above. Conditions: source organism: Vaccinia virus WR.
The next assay has as its target HLA-B*35:01. The description is as above. To be noted: source organism: Vaccinia virus WR.
Another assay concerns the target HLA-B*07:02. The description is as above. To be noted: source organism: Vaccinia virus WR.
Another assay has as its target HLA-A*68:01. The description is as above. Conditions: source organism: Vaccinia virus WR.
Another assay has as its target HLA-B*51:01. Described as above. To be noted: source organism: Vaccinia virus WR.
The target of a further assay is HLA-A*02:03. The assay is described as above.
For a further assay, the target named is HLA-A*02:01. The description is as above.
For the next assay, the target named is HLA-A*11:01. The assay is described as above. Conditions: source organism: Vaccinia virus WR.
The target in a further assay is HLA-A*26:01. The description is as above. Conditions: source organism: Dengue virus 3 Martinique/1243/1999.
Another assay concerns the target HLA-A*02:12. As to the kind of experiment: IEDB peptide-MHC binding, purified MHC/direct/fluorescence; filed as Kd, often an IC50 or EC50 that approximates it; ≥ and ≤ were set here for values at or beyond the usual limits of such assays. Conditions: source organism: Bacillus cereus 03BB108.
Assay [2] deals with HLA-A*03:01. Described as above. Conditions: source organism: Bacillus mycoides.
[3] abbreviates: source organism: Mammarenavirus tacaribeense.
Where [4] appears, read: source organism: Dengue virus 3 Martinique/1243/1999.
Setting [5] is: source organism: Vaccinia virus WR.
Setting [6] is: source organism: Trypanosoma cruzi.
Where [7] appears, read: source organism: Mammarenavirus brazilense.
The mark [8] stands for this setting: source organism: SARS coronavirus Tor2.
The mark [9] stands for this setting: source organism: Mammarenavirus guanaritoense.
The mark [10] stands for this setting: source organism: Mammarenavirus lassaense.
[11] abbreviates: source organism: Dengue virus 1 Brazil/97-11/1997.

AEFKSRFFVM: the pKd – broadly, −log10 of the Kd, conventionally taken in molar units – was 6.54 with HLA-B*45:01 (setting [3]); 7.38 in the assay with HLA-B*40:01 (setting [3]); 8.45 in the assay with HLA-B*40:02 (setting [3]); 7.06 in the assay with HLA-B*44:03 (setting [3]); 6.72 in the assay with HLA-B*44:02 (setting [3]); 7.43 in the assay with HLA-B*18:01 (setting [3]).
Turning to CSAVPVHWV, the pKd with HLA-A*68:02 (setting [4]) is 7.95.
As for CTFMIITSTK, the pKd with HLA-B*53:01 was 5.72; in the assay with HLA-B*54:01, 5.49; in the assay with HLA-A*02:06 (setting [5]) it was 4.87; in the assay with HLA-A*33:01 it was 5.91; with HLA-A*31:01 it was 6.77; in the assay with HLA-A*02:02 (setting [5]), 5.09. Moreover, the pKd with HLA-A*03:01 [1] is 6.34; with HLA-B*35:01, at most 4.19; in the assay with HLA-B*07:02, 5.52; with HLA-A*68:01, 7.08; in the assay with HLA-B*51:01, 4.99; with HLA-A*02:03 (setting [5]) it was 5.17. In addition, the pKd in the assay with HLA-A*02:01 (setting [5]) was 5.73; with HLA-A*11:01 it was 5.95; with HLA-A*68:02 (setting [5]), at most 4.42.
For DVSRPTTVV, the pKd in the assay with HLA-A*02:06 (setting [6]) was 4.89; with HLA-A*02:02 (setting [6]) it was 4.79; with HLA-A*02:03 (setting [6]), at most 4.42; in the assay with HLA-A*02:01 (setting [6]), at most 4.44; in the assay with HLA-A*68:02 (setting [6]), 7.42.
For EELSTLYEAL, the pKd in the assay with HLA-B*45:01 (setting [7]) was 5.68; in the assay with HLA-B*40:01 (setting [7]), 5.90; with HLA-B*40:02 (setting [7]), 6.92; in the assay with HLA-B*44:03 (setting [7]) it was 6.23; with HLA-B*44:02 (setting [7]) it was 5.72; with HLA-B*18:01 (setting [7]), 6.43.
Take EEVPNIIHEA: the pKd was 6.57 with HLA-B*45:01 (setting [7]); at most 4.69 with HLA-B*40:01 (setting [7]); 6.10 in the assay with HLA-B*40:02 (setting [7]); 4.80 with HLA-B*44:03 (setting [7]); at most 4.57 with HLA-B*44:02 (setting [7]); 4.91 with HLA-B*18:01 (setting [7]).
ETYQLWTAL: the pKd in the assay with HLA-A*26:01 was 6.74; with HLA-A*68:02 (setting [4]) it was 8.47.
In the case of GEILLLEWLA, the pKd was 7.76 with HLA-B*45:01 (setting [8]); 7.69 with HLA-B*40:01 (setting [8]); 4.79 in the assay with HLA-B*40:02 (setting [8]); 6.96 in the assay with HLA-B*44:03 (setting [8]); 6.21 with HLA-B*44:02 (setting [8]); 5.33 in the assay with HLA-B*18:01 (setting [8]).
For the sequence GEQVDLGPVL, the pKd with HLA-B*45:01 (setting [9]) is 5.72; with HLA-B*40:01 (setting [9]), 5.04; with HLA-B*40:02 (setting [9]) it was 7.28; in the assay with HLA-B*44:03 (setting [9]), at most 4.36; in the assay with HLA-B*44:02 (setting [9]) it was at most 4.49; in the assay with HLA-B*18:01 (setting [9]) it was 4.92.
In the case of GMFDWESMK, the pKd with HLA-A*02:12 is 6.13; with HLA-A*03:01 [2] it was 6.68.
Consider HDFGIPTPS, for which the pKd with HLA-B*45:01 (setting [10]) was 5.84; with HLA-B*40:01 (setting [10]), 4.86; in the assay with HLA-B*40:02 (setting [10]) it was 7.12; with HLA-B*44:03 (setting [10]), at most 4.11; with HLA-B*44:02 (setting [10]), at most 4.17; with HLA-B*18:01 (setting [10]) it was 4.74.
As to LTMKEKSWLV, the pKd with HLA-A*02:06 (setting [11]) is 7.13; with HLA-A*68:02 (setting [11]), 6.60.
For the sequence MEKLKALVA, the pKd with HLA-B*45:01 (setting [8]) is 7.62; with HLA-B*40:01 (setting [8]) it was 6.82; with HLA-B*40:02 (setting [8]) it was 6.75; in the assay with HLA-B*44:03 (setting [8]), 6.56; in the assay with HLA-B*44:02 (setting [8]), 6.25; in the assay with HLA-B*18:01 (setting [8]), 5.26.
As for MTTIGIVLL, in the assay with HLA-A*68:02 (source organism: Dengue virus 2 Peru/IQT2913/1996), the pKd was 7.30.
